US9713645B2, “Short interference RNA gene delivery system for systemic circulation” (INDUSTRY-UNIVERSITY COOPERATION FOUNDATION HANYANG …, priority 2012, dated 2017)

Assays:
cells = experiment: Intracellular transfection efficiency of D-R9 structures complexed with luciferase DNA; assay type: cell-based; conditions: complexes with luciferase DNA, charge ratio 1:5; FIG. 4
Description: In the PEG-R9 structure, PEG was attached to C-(D-R9)-C. To confirm whether the C-(D-R9)-C structure was optimum, the C-(D-R9)-C structure was compared with G-(D-R9)-G, G-(D-R9)-C, and C-(D-R9)-G structures. Each of the G-(D-R9)-G, G-(D-R9)-C, C-(D-R9)-G, and C-(D-R9)-C delivery systems formed complexes with luciferase DNA in a charge ratio of 1:5. The intracellular transfection efficiencies of the complexes into cells were evaluated.

SCC7 cells [1] = experiment: MTT assay for cell viability; assay type: cell-based; conditions: FIG. 6
Description: Cell viability was measured by MTT [3-(4,5-dimethylthiazol-2-yl)-2,5-diphenyltetrazolium bromide] assay.
SCC7 cells were incubated in a 24-well plate and treated with R9, PEG-R9 complexes, and PEI complexes in the specified charge ratios. 48 h after transfection, 50 μl of MTT reagent and 500 μl of a medium were added to each well, followed by culture at 37° C. for 3 h. After removal of the culture media, 500 μl of dimethyl sulfoxide (DMSO) was added to each well, followed by culture at room temperature for 20 min. The absorbance was measured at 570 nm.

SCC7 cells [2] = experiment: Luciferase assay for gene expression efficiency; assay type: cell-based; conditions: plasmid luciferase 4 μg, charge ratio 12, 48 h, FIG. 6
Description: In this example, luciferase gene expression was measured using a luciferase assay kit and cell viability was analyzed by MTT assay.
A luciferase assay kit was purchased from Promega (USA). A DC protein assay kit and a bovine serum albumin standard were purchased from Bio-Rad Laboratories (USA). SCC7 cells were seeded onto a 24-well plate at 2×10^4 cells/well. 24 h after seeding, the cells were transfected with plasmid luciferase (4 μg)/PEG-R9 complexes (charge ratio 12).
PEI complexes in a charge ratio of 8 were used as control. After 48-h incubation, the cells was washed with PBS and treated with 150 μl of a 1× cell lysis buffer reagent for 20 min. The cell lysate was obtained by scrapping, transferred to a 1.5 ml microtube, and centrifuged at 13,000 rpm for 3 min. The luminescence values of the cell lysate were measured using a 96-well plate photometer (Berthold Detection Systems, Germany) with a 20 s integration time and were expressed as relative luminescence units (RLU) per mg of cell protein.
Proteins were determined with the DC protein assay kit using the bovine serum albumin standard. Based on the above procedure, PEG500 and PEG1000 were compared to find which one would be most optimal.

[3] = Sizes and zeta potentials of siVEGF conjugates with different delivery systems; assay type: physicochemical; conditions: FIG. 7
Description: siVEGF was conjugated with different kinds of delivery systems. The sizes and zeta potentials of the conjugates were analyzed to find which delivery system would be optimal for siRNA delivery. A group of cys-R9-cys, PEG-R9, and PEG-cys-R9-cys delivery systems and a group of PEG-cys-R9-cys, PEG-TAT, and PEG-cys-TAT-cys delivery systems were used, and their mean diameters were measured and compared.

Substance | intracellular transfection efficiency (cells) | cytotoxicity (in words) (SCC7 cells [1]; 48 h after transfection) | cell viability (SCC7 cells [1]) | intracellular gene delivery efficiency by luciferase assay (SCC7 cells [2]) | particle size compared with the PEG-unbound delivery system [3]
Cys-(D-R9)-Cys [C-(D-R9)-C] | high transfection efficiencies | – | – | – | –
PEG-Cys-(D-R9)-Cys [PEG-R9] | – | much lower than the other gene delivery systems | at least 95% | efficiently deliver the gene into the cells | smaller
